Here are results for two molecules from patent publication US20190077844A1 (published 2019).

The target of experiment [1] is T1, Human glypican-3 on cells (Huh7, Hep3B, H446, HepG2; Hep3B xenograft tissue) (UniProt P51654 25-554). Briefly: flow cytometry; Hep3B cells.
Experiment [2] has as its target T1, Human glypican-3 on cells (Huh7, Hep3B, …). Briefly: flow cytometry; H446 cells.

T1 sequence (P51654 25-554): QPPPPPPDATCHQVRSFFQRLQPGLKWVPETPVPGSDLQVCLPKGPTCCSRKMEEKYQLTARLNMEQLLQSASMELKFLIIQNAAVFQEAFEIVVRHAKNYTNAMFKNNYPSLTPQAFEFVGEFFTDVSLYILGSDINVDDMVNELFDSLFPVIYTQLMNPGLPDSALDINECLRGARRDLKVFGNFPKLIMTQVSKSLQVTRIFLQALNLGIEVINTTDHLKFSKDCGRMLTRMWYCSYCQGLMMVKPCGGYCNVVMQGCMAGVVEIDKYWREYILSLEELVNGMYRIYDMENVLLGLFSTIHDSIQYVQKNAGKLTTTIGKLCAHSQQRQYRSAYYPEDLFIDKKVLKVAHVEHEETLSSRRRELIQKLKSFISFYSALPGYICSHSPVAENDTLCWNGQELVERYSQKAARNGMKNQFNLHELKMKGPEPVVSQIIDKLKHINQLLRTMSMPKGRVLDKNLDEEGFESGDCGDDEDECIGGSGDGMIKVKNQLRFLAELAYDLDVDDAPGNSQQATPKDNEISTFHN

B1: ADX_6912_G02 tubulysin analog drug conjugate DAR2 (designed binder)
chain: MGVSDVPRDLEVVAATPTSLLISWSDDYHAHRYYRITYGETGGNSPVQEFTVPGEHVTATISGLKPGVDYTITVYAVTYDGEKAATDWSISINYRTPCPPPPPCHHHHHH
modifications: tubulysin analog-linker (formula IV) on each of the two cysteines of the C-terminal PCPPPPPC
In the case of B1, the concentration for a half-maximal effect (EC50) in experiment [1] is 0.537 nM; in experiment [2] it was 0.573 nM.

B2: ADX_6077_F02 tubulysin analog drug conjugate DAR1 (designed binder)
chain: MGVSDVPRDLEVVAATPTSLLISWSDDYHAHRYYRITYGETGGNSPVQEFTVPGEHVTATISGLKPGVDYTITVYAVTYDGEKAATDWSISINYRTPCHHHHHH
modifications: tubulysin analog-linker (formula IV) on the cysteine of the C-terminal PC via maleimide
Regarding B2, the EC50 in experiment [1] worked out at 0.664 nM; in experiment [2] it was 0.386 nM.
